In patent US20200062856A1 (XDCEXPLORER SHANGHAI, published 2020):
Substitutions are numbered along the chain they refer to.

B1: Humanized Antibody 12B12-12-MMAE (antibody, V domains shown)
VH: EVQLVESGGGLVQPGGSLRLSCAASGFTFSNFGMHWVRQAPGKGLEWVSYISSGSTSFYYADTVKGRFTISRDNAKNSLYLQMNSLRDEDTAVYYCARTNSLLRGFFDAWGQGTTVTVSS
VL: DIVLTQTPLSLSVTPGQPASISCRASQSVSSSSYTYLHWYLQKPGQPPQLLIKSASNLESGVPDRFSGSGSGTDFTLKISRVEAEDVGVYYCQHSWEIPLTFGQGTKLEIK
modifications: MC-VC-PAB-MMAE on cysteines reduced with TCEP (sites not given), DAR about 3.0-5.0 per antibody
B2: Humanized antibody 28D4-8 (antibody, V domains shown)
VH: EVQLVESGGGLVKPGGSLRLSCAASGFTFSNYVMSWARQAPGKRLEWVAEISTGGSHTYYSDTVTGRFTISRDNAKKSLYLQMNSLRAEDTAVYYCIMFYYGSSYSMDYWGQGTTVTVSS
VL: DIQMTQSPSSLSASVGDRVTITCRASQDIRNYLNWYQQKPGKAPKLLIYHTSRLHSGVPSRFSGSGSGTDYTFTISSLQPEDIATYYCQQGDTLPLTFGQGTRLEIK
notes: also called h28D4-8
B3: Humanized antibody 28D4-6 (antibody, V domains shown)
VH: B2 VH with A37I, R44G, A49S, K77N
VL: B2 VL
notes: also called h28D4-6
B4: Humanized antibody 28D4-1 (antibody, V domains shown)
VH: B2 VH with A37I, R44G, A49S, K77N, I97A, M98R
VL: B2 VL with Y71F
notes: also called h28D4-1
B5: Humanized antibody 28D4-12 (antibody, V domains shown)
VH: B2 VH
VL: B2 VL with A43T, P44V, Y87F
notes: also called h28D4-12
B6: Humanized antibody 28D4-10 (antibody, V domains shown)
VH: B2 VH with A37I, R44G, A49S, K77N
VL: B2 VL with A43T, P44V, Y87F
notes: also called h28D4-10
B7: Humanized antibody 28D4-2 (antibody, V domains shown)
VH: B2 VH with A37I, R44G, A49S, K77N
VL: B2 VL with Y71F
notes: also called h28D4-2
B8: Humanized antibody 28D4-11 (antibody, V domains shown)
VH: B2 VH with A37I, R44G
VL: B2 VL with A43T, P44V, Y87F
notes: also called h28D4-11
B9: Humanized antibody 28D4-9 (antibody, V domains shown)
VH: B2 VH with A37I, R44G, A49S, K77N, I97A, M98R
VL: B2 VL with A43T, P44V, Y87F
notes: also called h28D4-9
B10: Humanized antibody 28D4-5 (antibody, V domains shown)
VH: B2 VH with A37I, R44G, A49S, K77N, I97A, M98R
VL: B2 VL
notes: also called h28D4-5
B11: Humanized antibody 12B12-14 (antibody, V domains shown)
VH: B1 VH with S49A, A97S
VL: B1 VL
notes: also called h12B12-14
B12: Humanized antibody 12B12-4 (antibody, V domains shown)
VH: B1 VH
VL: DIVLTQSPDSLAVSLGERATINCRASQSVSSSSYTYLHWYQQKPGQPPKLLIKSASNLESGVPDRFSGSGSGTDFTLTISSLQAEDVAVYYCQHSWEIPLTFGQGTKLEIK
notes: also called h12B12-4
B13: Humanized antibody 12B12-6 (antibody, V domains shown)
VH: B1 VH with S49A, A97S
VL: B12 VL
notes: also called h12B12-6
B14: Humanized antibody 12B12-7 (antibody, V domains shown)
VH: B1 VH with L11V, G16R, S49A, A75S, S78T, D88A
VL: B12 VL
notes: also called h12B12-7
B15: Humanized antibody 12B12-11 (antibody, V domains shown)
VH: B1 VH with L11V, G16R, S49A, A75S, S78T, D88A, A97S
VL: B1 VL with L4M, K53Y
notes: also called h12B12-11
B16: Humanized antibody 12B12-2 (antibody, V domains shown)
VH: B1 VH with S49A, A97S
VL: B12 VL with L4M, K53Y
notes: also called h12B12-2
B17: Humanized antibody 12B12-3 (antibody, V domains shown)
VH: B1 VH with L11V, G16R, S49A, A75S, S78T, D88A, A97S
VL: B12 VL with L4M, K53Y
notes: also called h12B12-3
B18: Humanized antibody 12B12-8 (antibody, V domains shown)
VH: B1 VH with L11V, G16R, S49A, A75S, S78T, D88A, A97S
VL: B12 VL
notes: also called h12B12-8
B19: Humanized antibody 12B12-13 (antibody, V domains shown)
VH: B1 VH with A97S
VL: B1 VL
notes: also called h12B12-13
B20: Humanized antibody 12B12-10 (antibody, V domains shown)
VH: B1 VH with S49A, A97S
VL: B1 VL with L4M, K53Y
notes: also called h12B12-10
B21: Humanized antibody 12B12-1 (antibody, V domains shown)
VH: B1 VH with A97S
VL: B12 VL with L4M, K53Y
notes: also called h12B12-1
B22: Humanized antibody 12B12-9 (antibody, V domains shown)
VH: B1 VH with A97S
VL: B1 VL with L4M, K53Y
notes: also called h12B12-9
B23: Humanized antibody 12B12-16 (antibody, V domains shown)
VH: B1 VH with L11V, G16R, S49A, A75S, S78T, D88A, A97S
VL: B1 VL
notes: also called h12B12-16
B24: Humanized antibody 12B12-5 (antibody, V domains shown)
VH: B1 VH with A97S
VL: B12 VL
notes: also called h12B12-5

biological target: T1, human TPBG protein, full-length, on the cell surface (human, UniProt Q13641 32-420); assay: cell-based or functional assay
T1 sequence (looked up): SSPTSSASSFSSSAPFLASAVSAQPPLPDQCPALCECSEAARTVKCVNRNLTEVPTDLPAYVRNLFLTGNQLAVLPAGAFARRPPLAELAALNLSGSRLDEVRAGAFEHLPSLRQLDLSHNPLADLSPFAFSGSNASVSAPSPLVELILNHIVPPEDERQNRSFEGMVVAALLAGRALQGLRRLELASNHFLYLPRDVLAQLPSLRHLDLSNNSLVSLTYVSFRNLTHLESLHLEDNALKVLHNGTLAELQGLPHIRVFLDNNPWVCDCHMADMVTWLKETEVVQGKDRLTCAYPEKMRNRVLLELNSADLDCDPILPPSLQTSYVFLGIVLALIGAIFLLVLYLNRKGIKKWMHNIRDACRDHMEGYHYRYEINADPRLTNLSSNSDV

Binder	IC50 of cell killing, MDA-MB-468 cells (CellTiter-Glo, 5 days)	IC50 of cell killing, NCI-H1568 cells (CellTiter-Glo, 5 days)	IC50 of cell killing, NCI-H1975 cells (CellTiter-Glo, 5 days)
B1	0.27 nM	0.43 nM	1.2 nM

biological target: T2, human TPBG-hFc protein (human, UniProt Q13641 32-355); assay: ELISA, coated human TPBG-hFc
T2 construct: range 32-355; Expressed in HEK293 cells, purified on protein A; also called immunogen A; hFc tagged TPBG protein; not shown: human IgG Fc fragment of the pCpC vector
T2 sequence (looked up): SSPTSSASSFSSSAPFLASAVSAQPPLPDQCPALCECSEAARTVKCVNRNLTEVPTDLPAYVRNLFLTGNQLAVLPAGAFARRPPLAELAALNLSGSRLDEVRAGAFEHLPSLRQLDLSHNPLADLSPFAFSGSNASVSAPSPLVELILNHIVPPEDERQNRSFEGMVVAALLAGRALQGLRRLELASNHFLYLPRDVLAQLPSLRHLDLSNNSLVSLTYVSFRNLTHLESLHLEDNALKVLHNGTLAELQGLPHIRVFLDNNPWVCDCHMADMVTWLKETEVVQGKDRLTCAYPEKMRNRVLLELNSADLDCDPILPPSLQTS
Procedure: The purified human TPBG-hFc obtained from step (1) diluting with PBS to a final concentration of 1.0 μg/mL was aliquoted into a 96-well ELISA plate at 100 μL per well, and sealed with a parafilm and incubated at 4° C. overnight. The plate was washed twice with plate washing buffer (PBS containing 0.01% (v/v) Tween 20), and blocked with blocking buffer (PBS containing 0.01% (v/v) Tween 20 and 1% (w/w) BSA) at room temperature for 2 h. The blocking buffer was discarded, and […] per well of the purified antibody TPBG was added. After incubating at 37° C. for 2 h, the plate was washed for three times with plate washing buffer (PBS containing 0.01% (v/v) Tween 20). HRP (horseradish peroxidase)-labeled secondary antibody (purchased from Sigma) was added and incubated at 37° C. for 2 h, and the plate was washed for three times using plate washing buffer (PBS containing 0.01% (v/v) Tween 20). 100 μL of TMB substrate was aliquoted into each well, incubated at room temperature for 30 min, and 100 μL of stop buffer (1.0 N HCl) per well was subsequently added. A_{450 nm} values were read using the ELISA plate reader (SpectraMax 384plus purchased from Molecular Device), and the results were shown in Table 5. […] In Table 5 the IgG control herein is a mice IgG control, the data in the Table are OD_{450 nm} values, and Blank represents the OD_{450 nm} value of PBS buffer in the plate.
The purified humanized TPBG antibody obtained from Embodiment 1 was reacted with human TPBG-hFc, for the method, see (5) Identification of lead antibody in Embodiment 1. The EC50 in Table 11 and Table 12 are calculated according to the OD450 nm value of the h12B12 variants and the h28D4 variants, respectively. […] FIGS. 7A and 7B are the binding reactions of purified humanized h12B12 variants to human TBPG-hFc protein, and FIGS. 8A and 8B are the binding reactions of the purified humanized h28D4 variants to human TBPG-hFc protein.

Binder	EC50
B2	0.162 nM
B3	0.205 nM
B4	0.364 nM
B5	0.167 nM
B6	0.224 nM
B7	0.181 nM
B8	0.191 nM
B9	0.218 nM
B10	0.782 nM
B11	0.257 nM
B12	0.227 nM
B13	0.362 nM
B14	0.367 nM
B15	0.239 nM
B16	0.274 nM
B17	0.333 nM
B18	0.287 nM
B19	0.289 nM
B20	0.25 nM
B21	0.248 nM
B22	0.223 nM
B23	0.2 nM
B24	0.253 nM

biological target: T3, human TPBG antigen immobilized on a CM5 chip (human, UniProt Q13641 32-355, limits assumed); assay: SPR (Biacore), human TPBG antigen immobilized on CM5 chip
T3 sequence (looked up): T2 sequence (looked up)
Procedure: To assess the binding specificity and affinity of the humanized anti-TPBG antibody, Biacore analysis was performed using human TPBG antigen immobilized on a CM5 chip. Biacore technique utilizes the change in the refractive index of surface layer after antibody binding to the TPBG antigen immobilized on the surface layer. The binding was determined by surface plasmon resonance (SPR) through detecting the laser refracted from the surface. Non-specific and specific interactions were distinguished by analysis of signal kinetics binding rate and dissociation rate. Chimeric antibodies 12B12 and 28D4 were used as controls.

Binder	Kd	koff	kon
B2	0.0296 nM	3.01e-05 s⁻¹	1.02e+06 M⁻¹ s⁻¹
B5	0.0381 nM	3.94e-05 s⁻¹	1.03e+06 M⁻¹ s⁻¹
B12	0.022 nM	3.46e-05 s⁻¹	1.58e+06 M⁻¹ s⁻¹
B23	0.0229 nM	3.65e-05 s⁻¹	1.59e+06 M⁻¹ s⁻¹
B24	0.0179 nM	2.1e-05 s⁻¹	1.17e+06 M⁻¹ s⁻¹
